The text below walks through data of patent US20170066836A1 (NATIONAL UNIVERSITY CORPORATION KOCHI UNIVERSITY, published 2017).

A word on the Kd: it is the concentration at which binding is half-saturated. Usually koff stands for the rate constant with which the complex falls apart. For orientation: kon means a measure of how fast the partners come together.

In experiment [1] the target is T1, mouse Glypican-1 expressed on 293 cells (mouse, UniProt Q9QZF2 24-529).
T1 construct: whole, on cells; also called mouse GPC-1; mouse GPC1
T1 sequence (looked up): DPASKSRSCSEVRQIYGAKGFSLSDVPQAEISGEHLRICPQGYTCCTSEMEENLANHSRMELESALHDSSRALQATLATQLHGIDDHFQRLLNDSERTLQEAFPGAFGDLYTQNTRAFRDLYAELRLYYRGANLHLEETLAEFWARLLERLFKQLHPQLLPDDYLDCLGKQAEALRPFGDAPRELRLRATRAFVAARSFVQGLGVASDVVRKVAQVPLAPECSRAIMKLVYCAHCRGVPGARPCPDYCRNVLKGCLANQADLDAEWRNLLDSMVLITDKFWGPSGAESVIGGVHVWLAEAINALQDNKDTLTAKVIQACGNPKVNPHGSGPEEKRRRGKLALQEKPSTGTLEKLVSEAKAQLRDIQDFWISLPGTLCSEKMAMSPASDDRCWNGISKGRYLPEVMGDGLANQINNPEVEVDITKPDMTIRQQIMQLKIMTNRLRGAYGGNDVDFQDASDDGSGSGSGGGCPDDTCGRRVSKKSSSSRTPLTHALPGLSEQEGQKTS
Put plainly: FACS on 293 cells forcibly expressing mouse GPC1. The method, then:
A mouse Glypican-1 expression vector or an empty vector was transfected to the 293 cell using lipofectamine 2000 and the reactivity with various clones of an anti-Glypican-1 antibody was analyzed by FACS.

Experiment [2] concerns the target T2, human Glypican-3 expressed on 293 cells (pFLAG-CMV3 hGPC3) (human, UniProt P51654 25-554).
T2 construct: whole, on cells; FLAG-tagged through the vector; also called human GPC-3
The experiment can be described thus: FACS on 293 cells transfected with pFLAG-CMV3 hGPC3. The method, then: Subsequently, a characteristic of various anti-Glypican-1 antibodies that reacted with Glypican-1, but not with Glypican-3 was determined to prepare a chimeric protein expression vector having an amino acid sequence of the 430th or more position of Glypican-1 substituted with that of Glypican-3 (FIG. 17). Various expression vectors were transfected into the 293 cell and the reactivity with various anti-Glypican-1 antibodies was analyzed by FACS. Consequently, since the reactivity in FACS is not recognized in three clones #17(2-60), #2(1-5), and #10(1-57), it is believed that the epitope region in these clones is present in the 430th to the 530th corresponding to an extracellular region of Glypican-1 (FIG. 18).

Experiment [3] addresses T3, recombinant Glypican-1 (R&D systems 4519-GP-050) (Homo sapiens (Human), UniProt P35052 24-530).
T3 construct: Bought protein
T3 sequence: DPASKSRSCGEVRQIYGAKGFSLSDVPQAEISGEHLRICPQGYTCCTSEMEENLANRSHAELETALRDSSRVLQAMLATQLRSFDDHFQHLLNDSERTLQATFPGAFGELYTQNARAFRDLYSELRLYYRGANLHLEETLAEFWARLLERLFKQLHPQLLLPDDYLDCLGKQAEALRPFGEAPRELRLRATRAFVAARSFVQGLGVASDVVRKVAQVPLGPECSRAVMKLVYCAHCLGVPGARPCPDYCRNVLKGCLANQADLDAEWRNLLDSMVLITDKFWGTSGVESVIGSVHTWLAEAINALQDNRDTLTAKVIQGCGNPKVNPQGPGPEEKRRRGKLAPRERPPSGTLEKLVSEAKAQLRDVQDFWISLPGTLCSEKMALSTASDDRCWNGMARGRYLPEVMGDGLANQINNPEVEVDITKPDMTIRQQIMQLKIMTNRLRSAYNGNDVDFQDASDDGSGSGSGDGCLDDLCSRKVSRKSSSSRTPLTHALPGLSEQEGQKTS
The experiment can be described thus: SPR (Biacore 3000): antibody captured by rabbit anti-mouse IgG on a CM5 chip, recombinant Glypican-1 added at various concentrations. On the procedure:
(§1) Affinity analysis of an anti-Glypican-1 antibody was measured using Biacore 3000. A rabbit anti-mouse IgG polyclonal antibody of the Mouse Antibody Capture Kit was solid-phased to a CM5 sensor tip, various anti-Glypican1 antibody clones were captured, recombinant Glypican-1 (R&D systems 4519-GP-050) was added at various concentrations as a ligand, and binding and dissociation were monitored. The obtained sensorgram was analyzed using BIAevaluation 4.1 software and a KD value was calculated (FIG. 12).
Background: SPR reads the build-up and loss of mass on a sensor chip optically.

In experiment [4] the target is T3, recombinant Glypican-1 (R&D systems …). Put plainly: Biacore 3000 (SPR): antibody captured on rabbit anti-mouse IgG on a CM5 chip, recombinant Glypican-1 added at various concentrations; BIAevaluation 4.1. The method, then: as §1

T2 sequence (P51654 25-554 limits assumed): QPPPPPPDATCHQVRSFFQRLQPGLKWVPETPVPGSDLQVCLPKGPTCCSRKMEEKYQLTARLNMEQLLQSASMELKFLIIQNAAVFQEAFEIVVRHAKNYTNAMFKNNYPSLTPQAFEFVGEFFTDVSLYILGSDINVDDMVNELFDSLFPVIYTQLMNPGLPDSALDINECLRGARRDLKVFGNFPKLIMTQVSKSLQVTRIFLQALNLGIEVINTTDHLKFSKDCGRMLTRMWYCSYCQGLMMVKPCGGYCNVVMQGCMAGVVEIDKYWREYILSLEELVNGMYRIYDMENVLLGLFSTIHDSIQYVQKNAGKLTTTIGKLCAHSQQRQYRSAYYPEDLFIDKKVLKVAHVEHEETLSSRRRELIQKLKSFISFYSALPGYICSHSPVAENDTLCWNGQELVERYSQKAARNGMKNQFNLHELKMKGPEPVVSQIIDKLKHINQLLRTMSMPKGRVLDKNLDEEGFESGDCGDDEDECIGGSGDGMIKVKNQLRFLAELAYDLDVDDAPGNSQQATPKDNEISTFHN

B1: anti-GPC-1 antibody 1-12 (antibody, V domains shown)
VH: AVTLDESGGGLQTPGRALSLVCKASGFTFSRYAMYWVRQAPGKGLEFVAGIGNTGRYTGYGSAVKGRATISRDSGQSTVRLQLNNLRAEDTGNYYCAKSVSPYCCDAADIDAWGHGTEVIVST
VL: ALTQPASVSANPGETVKITCSGGSSGYAYGWYQQKSPGSAPVTLLYSNNNRPSDIPSRFSGSKSGSTATLTITGVQAEDEAVYFCGSVDSSSYAGIFGAGTTLTV
notes: it was captured and detected with anti-mouse IgG and the control was mouse IgG2a; also called #4; clone 1-12
For B1, the binding result is recorded as “binds” in experiment [1] and “no binding” in experiment [2]. In addition, in experiment [3], the Kd is 2.61 nM. The koff in experiment [4] stood at 0.000488 s⁻¹. For the same molecule, the kon in experiment [4] came to 187000 M⁻¹ s⁻¹.
